Results: US7728193B2, “Phytochrome-interacting protein and a use thereof” (Genomine Inc., priority 2004, dated 2010)

Assays:
[1] = In vitro phosphatase assay: enzymatic activity of PAPP5 and its domain fragments on ρNPP; type: biochemical; conditions: in the presence of 100 μM arachidonic acid
Procedure: In order to examine whether the inventive PAPP5 protein has enzymatic activity, an enzymatic assay was performed using […] ρ-nitrophenyl phosphate (ρNPP) as a substrate. First, the GST-PAPP5 fusion protein purified in Example <4-1> was prewarmed at 30° C. for 1 minute. The prewarmed enzyme solution was added to 100 μl of kinase/phosphatase (KP) buffer (20 mM Tris-HCl pH 7.5, 30 mM MgCl2, 1 mM EDTA, 1 mM EGTA, 0.1% β-mercaptoethanol, 0.1% ethanol) containing O-400 mM ρNPP to initiate a reaction. To examine the autohydrolysis of ρNPP at each substrate concentration, the GST-PAPP5 enzyme solution was not added to a control group. After reaction at 30° C. for 15 minutes, 900 μl of 0.25N NaOH was added to terminate the reaction. The absorbance at 410 nm was measured. After subtracting the absorbance value of the control reaction solution containing all the components except for the enzyme from that of the reaction solution containing the enzyme, the rate was calculated using a millimolar extinction coefficient (17.8) of ρ-nitrophenolate ions.
Thus, in order to confirm if PAPP5 also have this property, the present inventors examined the phosphatase activities of GST-PAPP5, GST-TPR and GST-PP2Ac in the same manner as in Example <6-1>. At this time, the concentration of ρNPP was 100 mM.

[2] = biological target: T1, Arabidopsis thaliana phytochrome A (Arabidopsis thaliana, UniProt P14712); assay: Yeast two-hybrid analysis of specificity of interaction; type: cell-based; conditions: EGY48 yeast, Leu-drop out and X-gal media
T1 construct: expressed in transfected cells; host or cells: EGY48 yeast strain with pSH18-34 reporter
T1 sequence (P14712 1-1122): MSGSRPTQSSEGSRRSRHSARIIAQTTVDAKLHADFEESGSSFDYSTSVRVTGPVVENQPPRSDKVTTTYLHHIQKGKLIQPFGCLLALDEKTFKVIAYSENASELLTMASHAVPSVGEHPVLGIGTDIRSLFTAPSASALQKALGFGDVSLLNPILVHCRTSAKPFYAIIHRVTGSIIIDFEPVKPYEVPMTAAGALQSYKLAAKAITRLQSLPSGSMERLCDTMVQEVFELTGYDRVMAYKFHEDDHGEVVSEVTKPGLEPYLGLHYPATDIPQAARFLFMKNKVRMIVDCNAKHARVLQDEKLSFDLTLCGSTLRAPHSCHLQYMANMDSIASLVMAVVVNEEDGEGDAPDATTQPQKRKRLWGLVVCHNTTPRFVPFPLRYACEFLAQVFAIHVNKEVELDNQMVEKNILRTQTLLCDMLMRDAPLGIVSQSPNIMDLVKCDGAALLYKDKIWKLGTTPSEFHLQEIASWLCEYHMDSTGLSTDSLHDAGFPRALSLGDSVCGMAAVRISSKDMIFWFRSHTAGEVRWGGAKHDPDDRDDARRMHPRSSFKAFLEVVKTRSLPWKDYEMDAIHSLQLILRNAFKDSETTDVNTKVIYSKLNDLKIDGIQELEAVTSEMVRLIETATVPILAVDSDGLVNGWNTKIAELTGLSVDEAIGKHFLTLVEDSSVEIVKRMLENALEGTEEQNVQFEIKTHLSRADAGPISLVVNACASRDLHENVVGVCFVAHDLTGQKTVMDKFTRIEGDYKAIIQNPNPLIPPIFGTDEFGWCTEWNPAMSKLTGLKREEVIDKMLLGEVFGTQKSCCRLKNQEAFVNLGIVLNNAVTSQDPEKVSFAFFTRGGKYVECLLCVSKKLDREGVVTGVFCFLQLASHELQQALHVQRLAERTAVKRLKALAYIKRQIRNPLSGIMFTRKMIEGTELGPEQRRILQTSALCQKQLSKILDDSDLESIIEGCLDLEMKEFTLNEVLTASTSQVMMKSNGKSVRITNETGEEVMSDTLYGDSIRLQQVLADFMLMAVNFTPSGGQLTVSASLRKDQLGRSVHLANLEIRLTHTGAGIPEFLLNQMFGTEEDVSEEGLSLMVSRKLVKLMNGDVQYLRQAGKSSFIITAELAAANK
From the text: A pGilda vector and a pJG4-5 vector (OriGene Technologies) were used to prepare a prey and a bait, […] (see FIG. 4). In this case, as control groups to examine specific binding, hepatitis C virus (HCV) protein NS5A(N) (distributed from professor S K Jang, Department of Life Science, Pohang University of Science and Technology, Korea) and another plant protein SPINDLY(SPY) having the TPR domain (Jacobsen, S. E., et al., Proc. Natl. Acad. Sci. U.S.A. 93:9292-9296, 1996) were used. Furthermore, the prey and the bait were interchanged to observe protein-protein binding by a reciprocal method. The prepared prey and bait together with a pSH18-34 reporter plasmid (OriGene Technologies) were co-introduced into an EGY48 yeast strain (OriGene Technologies). Next, the transformants were selected on a media containing X-gal (5-bromo-4-chloro-3-indolyl-β-D-galactopyranoside; Rose Scientific Ltd.). Plate-growth assays were performed on Leu-drop out media and X-gal media.

[3] = biological target: T2, phytochrome A (Arabidopsis thaliana, UniProt P14712); assay: In vitro binding assay (GST pull-down of 35S-labeled TnT protein); conditions: 1 μg GST-PAPP5 fusion protein, 4° C.
T2 sequence (P14712 1-1122): T1 sequence (P14712 1-1122)
T2 sequence (Q84XU2 1-484 isoform Q84XU2-2 partner): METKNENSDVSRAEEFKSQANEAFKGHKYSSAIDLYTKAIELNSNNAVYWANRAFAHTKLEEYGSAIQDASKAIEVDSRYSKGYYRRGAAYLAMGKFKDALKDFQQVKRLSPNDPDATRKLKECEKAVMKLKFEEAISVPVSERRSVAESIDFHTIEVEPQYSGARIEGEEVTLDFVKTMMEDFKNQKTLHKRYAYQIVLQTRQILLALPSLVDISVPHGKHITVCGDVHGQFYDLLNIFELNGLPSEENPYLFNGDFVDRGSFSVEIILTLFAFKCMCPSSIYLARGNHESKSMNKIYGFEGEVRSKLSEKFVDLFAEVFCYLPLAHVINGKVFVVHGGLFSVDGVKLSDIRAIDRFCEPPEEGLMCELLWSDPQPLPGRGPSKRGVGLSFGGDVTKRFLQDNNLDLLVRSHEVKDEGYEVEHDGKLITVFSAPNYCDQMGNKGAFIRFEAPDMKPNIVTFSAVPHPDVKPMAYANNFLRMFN

PAPP5: type 5 serine/threonine protein phosphatase of Arabidopsis thaliana interacting with phytochromes, SEQ ID NO: 4
Km (Michaelis-Menten) [1]: 160 mM ρNPP | Vmax (Michaelis-Menten) [1]: 22 μmmol Pi released/min/mg | interaction with phytochrome A in yeast two-hybrid [2]: interacted specifically | binding to phytochrome A [3]: has the property of binding
